Test results taken from publication doi:10.1101/2020.09.17.302869.
Like-named read-outs stand apart in the source and are kept apart here.

Assays:
Assay in all cases: MST
[1] = biological target: sarco/endoplasmic reticulum Ca2+-ATPase (SERCA), native rabbit, detergent solubilized (rabbit) (UniProt P04191)
[2] = biological target: sarco/endoplasmic reticulum Ca2+-ATPase (SERCA), native rabbit, detergent solubilized (rabbit) (UniProt P04191); remark: listed apart in the source
[3] = biological target: sarco/endoplasmic reticulum Ca2+-ATPase (SERCA), native rabbit, detergent solubilized (rabbit) (UniProt P04191); remark: listed apart in the source

Chain of UniProt P04191 (P04191 whole entry): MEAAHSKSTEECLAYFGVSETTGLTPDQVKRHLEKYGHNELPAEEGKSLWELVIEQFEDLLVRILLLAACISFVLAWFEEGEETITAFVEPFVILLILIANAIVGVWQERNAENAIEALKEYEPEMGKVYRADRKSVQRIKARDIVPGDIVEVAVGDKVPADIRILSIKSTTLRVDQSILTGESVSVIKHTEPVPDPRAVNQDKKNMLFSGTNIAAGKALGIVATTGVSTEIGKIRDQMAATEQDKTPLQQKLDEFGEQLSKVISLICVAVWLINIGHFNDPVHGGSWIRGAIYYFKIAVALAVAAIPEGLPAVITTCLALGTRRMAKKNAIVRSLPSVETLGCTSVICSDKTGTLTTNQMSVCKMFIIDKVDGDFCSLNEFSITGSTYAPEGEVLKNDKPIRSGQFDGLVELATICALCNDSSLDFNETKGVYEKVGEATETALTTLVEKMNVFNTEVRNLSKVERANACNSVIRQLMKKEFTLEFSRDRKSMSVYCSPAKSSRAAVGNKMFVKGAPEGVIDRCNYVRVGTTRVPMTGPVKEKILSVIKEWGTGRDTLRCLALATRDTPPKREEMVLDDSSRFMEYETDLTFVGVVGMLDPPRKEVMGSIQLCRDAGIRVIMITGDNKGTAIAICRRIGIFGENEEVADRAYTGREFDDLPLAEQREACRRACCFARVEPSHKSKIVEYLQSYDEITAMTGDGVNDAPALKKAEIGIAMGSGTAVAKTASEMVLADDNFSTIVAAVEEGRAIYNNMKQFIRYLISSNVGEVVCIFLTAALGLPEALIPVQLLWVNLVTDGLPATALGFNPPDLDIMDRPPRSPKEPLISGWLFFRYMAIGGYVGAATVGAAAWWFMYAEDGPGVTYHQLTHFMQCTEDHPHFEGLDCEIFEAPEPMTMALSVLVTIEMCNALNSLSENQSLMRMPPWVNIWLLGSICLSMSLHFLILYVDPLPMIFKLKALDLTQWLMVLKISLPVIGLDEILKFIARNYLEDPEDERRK

B1: rabbit HRC (458-640) (domain or fragment)
chain: GEEEDEDDDDEGEHHHVPHRGHRGHEEDDGGDDDDGDDSTENGHQAHRHQGHGKEEAEVTSDEHHHHVPDHGHQGHGDKEGEEEGVSTDHWHQVPRHAHHGPGGEEEGGEEELTVKAGHHVASHPPPGHRSREGHAEEHQTEVPGHHQHRMGDTDTSAERGHPASSPRQQGHPPEDTVHHHRG
With B1 as the binder, how does the fold loss of affinity on removal of residues 640-666 [1] read?
Its fold loss of affinity on removal of residues 640-666 is 10 fold.

B2: rabbit HRC (496-656) (domain or fragment)
chain: STENGHQAHRHQGHGKEEAEVTSDEHHHHVPDHGHQGHGDKEGEEEGVSTDHWHQVPRHAHHGPGGEEEGGEEELTVKAGHHVASHPPPGHRSREGHAEEHQTEVPGHHQHRMGDTDTSAERGHPASSPRQQGHPPEDTVHHHRGSLKEEVGPESPGPAGV
B2 was tested. Which Kd [1] did it give?
The Kd was 0.14 µM.

And the fold decrease in affinity with increased KCl concentration [1]?
Its fold decrease in affinity with increased KCl concentration is over 100 fold.

What about the fold decrease in affinity, 200 mM against 50 mM KCl [1] of the same binder?
The fold decrease in affinity, 200 mM against 50 mM KCl was over 300 fold.

What about the Kd [2] of the same binder?
The Kd was 5.6 µM.

And the Kd [3]?
Its Kd is 0.5 to 1 µM.

B3: rabbit HRC (458-520) (domain or fragment)
chain: GEEEDEDDDDEGEHHHVPHRGHRGHEEDDGGDDDDGDDSTENGHQAHRHQGHGKEEAEVTSDE
With B3 as the binder, how does the fold reduction of affinity by C-terminal truncation [1] read?
The fold reduction of affinity by C-terminal truncation was over 1000 fold.
